Reference: patent US20180016581
Like-named read-outs stand apart in the source and are kept apart here.

Tests used:
[1] = molecular target: T1, GDF11, mature (Homo sapiens) (UniProt O95390); details: TrpdU at each W (n in listing)
T1 sequence: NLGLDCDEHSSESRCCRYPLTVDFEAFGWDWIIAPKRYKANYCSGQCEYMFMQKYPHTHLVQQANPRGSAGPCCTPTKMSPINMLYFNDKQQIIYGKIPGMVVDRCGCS

[2] = molecular target: GDF8 (myostatin), mature (Homo sapiens) (UniProt O14793); details: TrpdU at each W (n in listing)
Sequence of GDF8 (myostatin), mature (Homo sapiens) (O14793 267-375): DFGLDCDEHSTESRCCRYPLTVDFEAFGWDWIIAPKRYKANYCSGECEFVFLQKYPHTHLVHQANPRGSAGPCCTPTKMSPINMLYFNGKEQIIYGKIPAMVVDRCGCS

Row | Sequence | Kd ([1]; with Z-block) [nM] | Kd ([2]; with Z-block) [nM] | Kd ([1]; 0.1 uM Z-block, low binding plateau) [nM] | Kd ([2]; 0.1 uM Z-block, 1.32E-10 M in p223) [nM]
1 | CTCTGAACTTCTAATGTCTCTTGCATTTTATCGCATTGATTTCTCCAACA [14583-19_3] | 0.42 | 1.16 |  | 
2 | CTCTGATACGGCCTTAGTGTTAGAGTCCTTTATGAGTCTAGACCACAACA [14583-49_3] |  |  | 1.11 | 0.13
3 | TGTTAGAGTCCTTTATGAGTCTAG [14583-49_29] |  | 0.228 |  | 
